From patent US20240261333A1, “NOVEL TARGETS FOR ENHANCING ANTI-TUMOR IMMUNITY” (THE BROAD INSTITUTE, INC., priority 2021, published 2024)

T1: B3GNT2 (Homo sapiens, UniProt Q9NY97)
T1 construct: The respective ORFs of candidate genes [CD274 (NM_014143), MCL1 (NM_021960), JUNB (NM_002229), and B3GNT2 (NM_006577)] were synthesized; expressed in transfected cells; host or cells: A375 melanoma cells (lentiviral ORF overexpression)
T1 sequence (Q9NY97 1-397): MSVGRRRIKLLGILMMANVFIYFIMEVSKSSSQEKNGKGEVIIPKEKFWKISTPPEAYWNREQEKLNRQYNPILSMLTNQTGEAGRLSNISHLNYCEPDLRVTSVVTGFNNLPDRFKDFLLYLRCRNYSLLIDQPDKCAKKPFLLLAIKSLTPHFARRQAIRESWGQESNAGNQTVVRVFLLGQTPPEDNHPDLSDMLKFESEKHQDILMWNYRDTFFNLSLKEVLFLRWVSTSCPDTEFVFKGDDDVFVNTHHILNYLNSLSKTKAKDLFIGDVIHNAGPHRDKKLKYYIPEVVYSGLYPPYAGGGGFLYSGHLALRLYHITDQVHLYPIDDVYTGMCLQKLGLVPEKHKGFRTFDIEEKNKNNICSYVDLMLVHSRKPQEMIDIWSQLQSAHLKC

B1: ERLIN1 (protein)
chain: MNMTQARVLVAAVVGLVAVLLYASIHKIEEGHLAVYYRGGALLTSPSGPGYHIMLPFITTFRSVQTTLQTDEVKNVPCGTSGGVMIYIDRIEVVNMLAPYAVFDIVRNYTADYDKTLIFNKIHHELNQFCSAHTLQEVYIELFDQIDENLKQALQKDLNLMAPGLTIQAVRVTKPKIPEAIRRNFELMEAEKTKLLIAAQKQKVVEKEAETERKKAVIEAEKIAQVAKIRFQQKVMEKETEKRISEIEDAAFLAREKAKADAEYYAAHKYATSNKHKLTPEYLELKKYQAIASNSKIYFGSNIPNMFVDSSCALKYSDIRTGRESSLPSKEALEPSGENVIQNKESTG
B2: HSD17B12 (protein)
chain: MESALPAAGFLYWVGAGTVAYLALRISYSLFTALRVWGVGNEAGVGPGLGEWAVVTGSTDGIGKSYAEELAKHGMKVVLISRSKDKLDQVSSEIKEKFKVETRTIAVDFASEDIYDKIKTGLAGLEIGILVNNVGMSYEYPEYFLDVPDLDNVIKKMININILSVCKMTQLVLPGMVERSKGAILNISSGSGMLPVPLLTIYSATKTFVDFFSQCLHEEYRSKGVFVQSVLPYFVATKLAKIRKPTLDKPSPETFVKSAIKTVGLQSRTNGYLIHALMGSIISNLPSWIYLKIVMNMNKSTRAHYLKKTKKN
B3: PRR4 (protein)
chain: QSTDNDVNYEDFTFTIPDVEDSSQRPDQGPQRPPPEGLLPRPPGDSGNQDDGPQQRPPKPGGHHRHPPPPPFQNQQRPPRRGHRQLSLPRFPSVSLQEASSFFQRDRPARHPQEQPLW
B4: SERPINE2 (protein)
chain: SHFNPLSLEELGSNTGIQVFNQIVKSRPHDNIVISPHGIASVLGMLQLGADGRTKKQLAMVMRYGVNGVGKILKKINKAIVSKKNKDIVTVANAVFVKNASEIEVPFVTRNKDVFQCEVRNVNFEDPASACDSINAWVKNETRDMIDNLLSPDLIDGVLTRLVLVNAVYFKGLWKSRFQPENTKKRTFVAADGKSYQVPMLAQLSVFRCGSTSAPNDLWYNFIELPYHGESISMLIALPTESSTPLSAIIPHISTKTIDSWMSIMVPKRVQVILPKFTAVAQTDLKEPLKVLGITDMFDSSKANFAKITTGSENLHVSHILQKAKIEVSEDGTKASAATTAILIARSSPPWFIVDRPFLFFIRHNPTGAVLFMGQINKP
B5: CKAP4 (protein)
chain: MPSAKQRGSKGGHGAASPSEKGAHPSGGADDVAKKPPPAPQQPPPPPAPHPQQHPQQHPQNQAHGKGGHRGGGGGGGKSSSSSSASAAAAAAAASSSASCSRRLGRALNFLFYLALVAAAAFSGWCVHHVLEEVQQVRRSHQDFSRQREELGQGLQGVEQKVQSLQATFGTFESILRSSQHKQDLTEKAVKQGESEVSRISEVLQKLQNEILKDLSDGIHVVKDARERDFTSLENTVEERLTELTKSINDNIAIFTEVQKRSQKEINDMKAKVASLEESEGNKQDLKALKEAVKEIQTSAKSREWDMEALRSTLQTMESDIYTEVRELVSLKQEQQAFKEAADTERLALQALTEKLLRSEESVSRLPEEIRRLEEELRQLKSDSHGPKEDGGFRHSEAFEALQQKSQGLDSRLQHVEDGVLSMQVASARQTESLESLLSKSQEHEQRLAALQGRLEGLGSSEADQDGLASTVRSLGETQLVLYGDVEELKRSVGELPSTVESLQKVQEQVHTLLSQDQAQAARLPPQDFLDRLSSLDNLKASVSQVEADLKMLRTAVDSLVAYSVKIETNENNLESAKGLLDDLRNDLDRLFVKVEKIHEKV
B6: CANX (protein)
chain: HDGHDDDVIDIEDDLDDVIEEVEDSKPDTTAPPSSPKVTYKAPVPTGEVYFADSFDRGTLSGWILSKAKKDDTDDEIAKYDGKWEVEEMKESKLPGDKGLVLMSRAKHHAISAKLNKPFLFDTKPLIVQYEVNFQNGIECGGAYVKLLSKTPELNLDQFHDKTPYTIMFGPDKCGEDYKLHFIFRHKNPKTGIYEEKHAKRPDADLKTYFTDKKTHLYTLILNPDNSFEILVDQSVVNSGNLLNDMTPPVNPSREIEDPEDRKPEDWDERPKIPDPEAVKPDDWDEDAPAKIPDEEATKPEGWLDDEPEYVPDPDAEKPEDWDEDMDGEWEAPQIANPRCESAPGCGVWQRPVIDNPNYKGKWKPPMIDNPSYQGIWKPRKIPNPDFFEDLEPFRMTPFSAIGLELWSMTSDIFFDNFIICADRRIVDDWANDGWGLKKAADGAAEPGVVGQMIEAAEERPWLWVVYILTVALPVFLVILFCCSGKKQTSGMEYKKTDAPQPDVKEEEEEKEEEKDKGDEEEEGEEKLEEKQKSDAEEDGGTVSQEEEDRKPKAEEDEILNRSPRNRKPRRE
B7: CASP14 (protein)
chain: MSNPRSLEEEKYDMSGARLALILCVTKAREGSEEDLDALEHMFRQLRFESTMKRDPTAEQFQEELEKFQQAIDSREDPVSCAFVVLMAHGREGFLKGEDGEMVKLENLFEALNNKNCQALRAKPKVYIIQACRGEQRDPGETVGGDEIVMVIKDSPQTIPTYTDALHVYSTVEGYIAYRHDQKGSCFIQTLVDVFTKRKGHILELLTEVTRRMAEAELVQEGKARKTNPEIQSTLRKRLYLQ
B8: SRSF7 (protein)
chain: MSRYGRYGGETKVYVGNLGTGAGKGELERAFSYYGPLRTVWIARNPPGFAFVEFEDPRDAEDAVRGLDGKVICGSRVRVELSTGMPRRSRFDRPPARRPFDPNDRCYECGEKGHYAYDCHRYSRRRRSRSRSRSHSRSRGRRYSRSRSRSRGRRSRSASPRRSRSISLRRSRSASLRRSRSGSIKGSRYFQSPSRSRSRSRSISRPRSSRSKSRSPSPKRSRSPSGSPRRSASPERMD
B9: SLC25A4 (protein)
chain: GDHAWSFLKDFLAGGVAAAVSKTAVAPIERVKLLLQVQHASKQISAEKQYKGIIDCVVRIPKEQGFLSFWRGNLANVIRYFPTQALNFAFKDKYKQLFLGGVDRHKQFWRYFAGNLASGGAAGATSLCFVYPLDFARTRLAADVGKGAAQREFHGLGDCIIKIFKSDGLRGLYQGFNVSVQGIIIYRAAYFGVYDTAKGMLPDPKNVHIFVSWMIAQSVTAVAGLVSYPFDTVRRRMMMQSGRKGADIMYTGTVDCWRKIAKDEGAKAFFKGAWSNVLRGMGGAFVLVLYDEIKKYV
B10: HSPH1 (protein)
chain: SVVGLDVGSQSCYIAVARAGGIETIANEFSDRCTPSVISFGSKNRTIGVAAKNQQITHANNTVSNFKRFHGRAFNDPFIQKEKENLSYDLVPLKNGGVGIKVMYMGEEHLFSVEQITAMLLTKLKETAENSLKKPVTDCVISVPSFFTDAERRSVLDAAQIVGLNCLRLMNDMTAVALNYGIYKQDLPSLDEKPRIVVFVDMGHSAFQVSACAFNKGKLKVLGTAFDPFLGGKNFDEKLVEHFCAEFKTKYKLDAKSKIRALLRLYQECEKLKKLMSSNSTDLPLNIECFMNDKDVSGKMNRSQFEELCAELLQKIEVPLYSLLEQTHLKVEDVSAVEIVGGATRIPAVKERIAKFFGKDISTTLNADEAVARGCALQCAILSPAFKVREFSVTDAVPFPISLIWNHDSEDTEGVHEVFSRNHAAPFSKVLTFLRRGPFELEAFYSDPQGVPYPEAKIGRFVVQNVSAQKDGEKSRVKVKVRVNTHGIFTISTASMVEKVPTEENEMSSEADMECLNQRPPENPDTDANEKKVDQPPEAKKPKIKVVNVELPIEANLVWQLGKDLLNMYIETEGKMIMQDKLEKERNDAKNAVEEYVYEFRDKLCGPYEKFICEQDHQNFLRLLTETEDWLYEEGEDQAKQAYVDKLEELMKIGTPVKVRFQEAEERPKMFEELGQRLQHYAKIAADFRNKDEKYNHIDESEMKKVEKSVNEVMEWMNNVMNAQAKKSLDQDPVVRAQEIKTKIKELNNTCEPVVTQPKPKIESPKLERTPNGPNIDKKEEDLEDKNNFGAEPPHQNGECYPNEKNSVNMDLD
B11: UQCRC2 (protein)
chain: SLKVAPKVKATAAPAGAPPQPQDLEFTKLPNGLVIASLENYSPVSRIGLFIKAGSRYEDFSNLGTTHLLRLTSSLTTKGASSFKITRGIEAVGGKLSVTATRENMAYTVECLRGDVDILMEFLLNVTTAPEFRRWEVADLQPQLKIDKAVAFQNPQTHVIENLHAAAYRNALANPLYCPDYRIGKVTSEELHYFVQNHFTSARMALIGLGVSHPVLKQVAEQFLNMRGGLGLSGAKANYRGGEIREQNGDSLVHAAFVAESAVAGSAEANAFSVLQHVLGAGPHVKRGSNTTSHLHQAVAKATQQPFDVSAFNASYSDSGLFGIYTISQATAAGDVIKAAYNQVKTIAQGNLSNTDVQAAKNKLKAGYLMSVESSECFLEEVGSQALVAGSYMPPSTVLQQIDSVANADIINAAKKFVSGQKSMAASGNLGHTPFVDEL

Biological target: T1, B3GNT2
Assay: Co-IP of FLAG-tagged B3GNT2 followed by mass spectrometry
Assay type: cell-based
Design: C-term IgG / C-term flag: unit not given here
Settings: Co-IP with FLAG antibody, C-terminally FLAG-tagged B3GNT2; mass spectrometry count, unit not given
Method in brief: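 Co-purifying proteins were identified by fractionated nano-LC–MS/MS on an Orbitrap Elite, run data-dependent. Beforehand, lysates in 1% Triton X-100/HEPES buffer were incubated overnight at 4° C with anti-FLAG or […] and pulled down on Protein A/G magnetic beads for 4 h. Duplicate biological replicates.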

C-term flag	Molecule
9	B1
10	B2
0	B3
11	B4
14	B5
11	B6
9	B7
0	B8
14	B9
7	B10
4	B11

Same assay, conditions: Co-IP with FLAG antibody, N-terminally FLAG-tagged B3GNT2; mass spectrometry count, unit not given

N-term FLAG	Molecule
11	B1
10	B2
2	B3
4	B4
2	B5
6	B6
8	B7
2	B8
9	B9
8	B10
13	B11

Same assay, conditions: Co-IP with IgG control antibody, C-terminally FLAG-tagged B3GNT2; mass spectrometry count, unit not given

C-term IgG	Molecule
0	B1
0	B2
0	B3
0	B4
0	B5
0	B6
4	B7
0	B8
0	B9
0	B10
0	B11

Same assay, conditions: Co-IP with IgG control antibody, N-terminally FLAG-tagged B3GNT2; mass spectrometry count, unit not given

N-term IgG	Molecule
0	B1
0	B2
0	B3
0	B4
0	B5
0	B6
3	B7
0	B8
0	B9
0	B10
0	B11
